Laboratory results from the RNAGym collection of RNA variant scans (doi:10.1073/pnas.2313332121).

B1: TPR t1 (parent)
chain: GACCAAUCUGCCCUCAGAGCUCGAGAACAUCUUCGGAUGCAGAGGAGGCAGGCUUCGGUGGCGCGAUAGCGCCAACGUCCUCAACCUCCAAUGCAUCCCACCACAUGAUGAUGCCUGAAGAGCCUUGGUUUUUUG

Variants of: B1
Assay: polymerase ribozyme fitness, log enrichment relative to wild type (log ratio); higher = more active; in vitro selection for triplet polymerase activity
Method in brief: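 A heterodimeric triplet polymerase ribozyme had each of its subunits mutagenized by PCR into a library, which was transcribed. One round of in vitro selection, done in triplicate, annealed each library with a biotinylated primer, its partner subunit and triplets, then incubated it frozen at −7 °C before gel excision of extended constructs, streptavidin-bead capture and RT-PCR. Fitness is the logarithm of genotype enrichment relative to wild-type enrichment, based on Illumina sequencing of inputs and outputs and inverse-variance-weighted replicate averages. A base-2 logarithm is used, and genotypes were kept only with ≥10 input reads and ≥1 read per output.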

Variant | polymerase ribozyme fitness (log ratio)
C34G C72U | -5.89
U33G U133G | -6.24
A29U G127A | -4.12
A29U C123A | -1.43
C31A | -5.84
C31U | -4.29
C31G | -7.22
U33G G128A | -6.19
A29U G61A | -1.45
C34A A50C C53G U106A A111C | -5.87
U32C C79G U81C G113A | -2.36
C34A C97G U125A | -3.42
U32A G120C | -3.07
U33G G47U C72U G120A | -6.26
C31U A46C G47U C98A G120C | -7.6
C34A A37U A46U A74U G113C | -6.79
U32C U81G | -3.83
C34U G36U G61A C97G A119G | -3.91
C31U U54A | -5.03
C34A G60A | -3.35
C34A G60U | -3.73
U33G G65U C72G A111C A118U | -6.82
U33G C49G G57A C62U A84C C88G G93A G110C | -7.42
U30A C56A C70U | -7.2

Variant | polymerase ribozyme fitness (log ratio)
C34U A41G C53U G69U | -2.44
A29U A83C C124A | -0.511
G35A A103G | -6.59
A29U A66C | -2.83
C34A C40U C85G | -4.94
C34U C62A | -4.23
C34U C56A | -5.06
A29G U132C | -0.924
C31U C70U C72U | -5.69
C34U C86A C114U | -5.07
C34G C62U C94G A105C U130C | -7.14
A29G G42A G63A | -4.31
U32G U33C A43U A91U | -6.04
U32C C124G | 1.48
C34A A50C | -3.5
G35A C70U | -2.72
U32C G52A G61A U125A | -0.743
U32C G71C C79G U81C G113A | -3.36
U30C C101U A111C | -3.68
C34U U54A G61A | -4.4
U32C C40U C86G | -2.2
U32G A41G C70U C89G C114U | -5.66
C34A G42U C70G U81A C101A | -8.04
C34A U54A | -1.22

Variant | polymerase ribozyme fitness (log ratio)
C34U G122U | -3.58
U30C C72A | -2.24
C31A A95U | -5.15
C34G G51U C53A G69U G120U | -7.39
A29U C62G U106A | -2.35
C34A A105U A121U | -1.99
C34U G45C G69U C115G | -3.26
A29U G47C C73G U109A | -0.853
C31U G36C G61A | -4.05
A29G G45U C64U | -2.76
C34A G52A U96C C124A | -1.41
C34U U106C | -3.99
C34U U106A | -4.95
C31U G47U U112C G120C | -4.82
G35A C85G U106G G120C | -4.02
C34A U87A A105G | -6.02
A29U G52A G113A | -2.09
U33A G44A G51A G63A A66G A74U A111U | -7.25
U33A C56G | -4.38
C34U G39C A50G | -5.57
C34U C97U | -4.85
A29U U59G G120C | -1.14
C31G G48U G65A C86G A100C G120C | -6.59
U30C G47U C53U U54A U133A | -4.89

Variant | polymerase ribozyme fitness (log ratio)
A29U G63U | -2.58
C34U G52A C62G A119G C123U G135C | -5.87
U33A U129A | -6.13
A29U U112G U133C | -1.1
C34A U116C | -5.3
C34A A75G | -2.34
C34U U112A | -2.99
C34A G69A | -5.23
C34A G71U U92A C114G | -7.83
A29G G120U | -0.745
C34U G52U U87G U112A G135C | -5.16
C34G G63U C72U G110U | -8.01
A29U G44A U59A A103C U112C | -5.66
C34A G71U A75G | -4.12
C31U C40U | -4.75
A29U G47U C62U | -4.34
U33A C102G U112A | -6.38
C34G G63A | -7.1
C34G G63U | -8.24
U32A G39U G45C C64G C114A | -6.51
A29U G69U U81C A100U C124A | 0.115
A29U A37U C40U G71C | -2.78
U33A C56G G69U | -2.45
U32C C104U U112G | 0.174

Variant | polymerase ribozyme fitness (log ratio)
U32A A41U | -5.52
A29G G69U A95G | -1
A29U C98A U109G | -4.46
C34U U133A | -4.62
U33A G48U U55C U109C A121G C124A G127C | -5.45
C34U C88G | -3.99
A29U C40U G60C U131A | -2.41
C31G C56A G60U U109A | -7.12
C34A C62U | -2.79
A29U G61A C82G U116C U125A | -3.67
U33G U55A C72G | -6.25
U30G A43U A91U G113U | -6.55
A29G G69C G77C | -4.34
C31A C40G A46G G63A A111U | -6.15
U33A G117U | -5.29
C34U G117U | -5.02
U32G A43G C73U A105U G120C | -7.51
G35A C73A | -3.7
C34A G44A G48A G61U A121C C123G | -4.48
A29G G48U G93C G110U C123U | -4.77
C31G G44U G52U C62U C85U C115U G117A | -7.35
U32G A41G C70U C114U | -4.09
C31U A118U C123U | -4.23
C31U G48A C73U U106G | -3.4

Variant | polymerase ribozyme fitness (log ratio)
U32C G120C | 1.83
C34U U59G A121C C124G | -3.59
C31U G57C U106A | -0.497
U33G C104U C123G | -4.29
C34G G61U C64U C99A G120A A121G | -5.39
U32C G44U G60A | -0.98
C34G U78G | -6.71
C34A C101U C104U U133A | -1.95
U33C C49A | -5.36
G35A C73G C80A A121G | -6.83
G35A C86G | -5.03
U32A C56G G77U C99A C123U U125G | -5.41
A29U G71U | -1.99
U33G G47C G61C C80A U112A U116C A119U | -6.76
U33A C89A | -6.86
A29G G60A | -1.42
A29G G60C | -1.31
U33A C72A C76A | -6.92
A29U C56G A66U | -3
U32G C62G G120U | -8.14
U32A A43G C88U G93A C114G | -5.05
U32C U55G C102A | -2.56
C34A G58C | -2.18
U30G U32C | -6.32

Variant | polymerase ribozyme fitness (log ratio)
A29U C40U C49A A68G U106A | -4.25
C31U C124U | -3.64
C31G C98G G110U | -6.25
U33C G45A | -5.98
U33A A46C G69U | -0.918
C34U C64U C88U | -4.34
C34A C40U G48C C114U G120C | -3.6
U33A A46C G69U U78G | -2.03
U33A G69U | -0.74
U33A G61A U87A U133G | -4.05
C31U U59C G120U G127C | -5.99
C34G A111G G127A | -5.87
C34A U59A C115U A118U | -6.82
A29G U59G | -1.48
C34G A108G | -6.09
C34G C98G C115A U125A | -7.53
C34G G120A | -5.16
A29U G42C A66G A119U | -4.64
C31G G61C | -7.02
C34G G48U G122A | -7.95
A29U C115A | -1.59
U33A G127C | -4.76
A29G U55G G63A U131C U133G | -2.37
